The values that follow come from publication PMC5563082, “Structural Mechanism for Modulation of Synaptic Neuroligin-Neurexin Signaling by MDGA Proteins” (Neuron, 2017).

Test [1] addresses T1, human MDGA1 extracellular domain (MDGA1_(ECTO); Gln19-Lys925) (human, UniProt Q8NFP4-1 19-925).
T1 construct: human MAM domain-containing glycosylphosphatidylinositol anchor protein 1, Gln19-Lys925; Not deglycosylated; also called human MDGA1_(ECTO); source: HEK293T, transient transfection, purified (IMAC, SEC)
T1 sequence (looked up): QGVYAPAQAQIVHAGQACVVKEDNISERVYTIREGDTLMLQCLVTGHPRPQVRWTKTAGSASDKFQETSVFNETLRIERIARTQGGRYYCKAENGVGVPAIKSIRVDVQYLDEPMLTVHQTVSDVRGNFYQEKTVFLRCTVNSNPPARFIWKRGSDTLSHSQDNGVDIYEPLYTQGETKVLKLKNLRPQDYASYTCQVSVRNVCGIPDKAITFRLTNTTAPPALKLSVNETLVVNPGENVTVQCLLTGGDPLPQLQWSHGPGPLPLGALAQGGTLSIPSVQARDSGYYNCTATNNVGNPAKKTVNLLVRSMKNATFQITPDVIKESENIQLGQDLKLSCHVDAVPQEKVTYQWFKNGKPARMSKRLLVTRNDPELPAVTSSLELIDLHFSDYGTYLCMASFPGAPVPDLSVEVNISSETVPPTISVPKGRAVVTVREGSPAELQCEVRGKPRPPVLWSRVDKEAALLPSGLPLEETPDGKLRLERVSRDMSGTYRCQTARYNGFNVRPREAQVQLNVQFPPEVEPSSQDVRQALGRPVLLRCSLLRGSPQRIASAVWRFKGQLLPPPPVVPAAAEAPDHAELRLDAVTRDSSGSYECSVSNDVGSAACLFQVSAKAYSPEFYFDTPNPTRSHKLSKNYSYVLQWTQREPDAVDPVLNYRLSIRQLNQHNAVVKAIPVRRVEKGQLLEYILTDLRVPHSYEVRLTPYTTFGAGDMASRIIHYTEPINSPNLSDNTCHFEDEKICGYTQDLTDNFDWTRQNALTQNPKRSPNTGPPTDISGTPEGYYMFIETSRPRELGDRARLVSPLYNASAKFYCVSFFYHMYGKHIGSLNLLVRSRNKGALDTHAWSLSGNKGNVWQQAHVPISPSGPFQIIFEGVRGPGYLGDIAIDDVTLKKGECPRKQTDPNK
Description: SPR; biotinylated NL_(ECTO)-Avitag variants captured from dialysed conditioned medium on streptavidin CM5 chip (500 RU; 550 RU for the ΔSite series; 1000 RU for NL3 and NL3 Arg451Cys in the R451C series); β-NRX1_(LNS6)(±4), MDGA1_(ECTO), MDGA2_(ECTO) injected, 15 concentrations, two-fold series from 50 μM; TBS-CTB (10 mM Tris pH 7.4, 150 mM NaCl, 3 mM CaCl2, 0.005% Tween-20, 1.0 g/L BSA); equilibrium analysis, 1:1 …. As to conditions: both partners purified. On the technique in general: In SPR one partner is held on a chip, and binding of the other changes the refractive index at the surface.

Test [2] addresses T2, human MDGA2 extracellular domain (MDGA2_(ECTO); Gln21-Lys927) (human, UniProt Q7Z553 21-927).
T2 construct: human MAM domain-containing glycosylphosphatidylinositol anchor protein 2, Gln21-Lys927; Not deglycosylated; source: HEK293T, transient transfection, purified (IMAC, SEC)
T2 sequence (looked up): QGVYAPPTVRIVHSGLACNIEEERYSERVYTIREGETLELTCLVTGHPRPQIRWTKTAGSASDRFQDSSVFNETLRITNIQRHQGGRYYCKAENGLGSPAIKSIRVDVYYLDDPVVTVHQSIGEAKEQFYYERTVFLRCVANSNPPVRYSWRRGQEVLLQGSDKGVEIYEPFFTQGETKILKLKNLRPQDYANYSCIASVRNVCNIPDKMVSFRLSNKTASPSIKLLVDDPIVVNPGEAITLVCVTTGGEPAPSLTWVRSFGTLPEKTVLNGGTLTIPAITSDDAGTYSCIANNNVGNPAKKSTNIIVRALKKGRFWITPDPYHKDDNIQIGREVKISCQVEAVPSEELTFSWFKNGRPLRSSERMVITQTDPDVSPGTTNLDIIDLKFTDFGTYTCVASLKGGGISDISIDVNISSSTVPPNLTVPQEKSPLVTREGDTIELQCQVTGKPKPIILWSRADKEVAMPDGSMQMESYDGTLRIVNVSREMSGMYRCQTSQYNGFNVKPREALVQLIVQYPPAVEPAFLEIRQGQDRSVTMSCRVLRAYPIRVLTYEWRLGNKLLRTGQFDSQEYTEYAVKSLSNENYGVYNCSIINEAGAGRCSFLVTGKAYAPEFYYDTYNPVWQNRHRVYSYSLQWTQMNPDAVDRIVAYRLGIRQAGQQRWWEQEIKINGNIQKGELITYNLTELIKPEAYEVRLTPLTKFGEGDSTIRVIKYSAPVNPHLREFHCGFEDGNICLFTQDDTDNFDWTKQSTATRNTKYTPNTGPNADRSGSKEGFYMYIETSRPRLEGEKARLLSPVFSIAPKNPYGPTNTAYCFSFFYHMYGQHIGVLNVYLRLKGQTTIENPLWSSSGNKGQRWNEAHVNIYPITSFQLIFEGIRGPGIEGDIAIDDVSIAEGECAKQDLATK
The description is as above. As to conditions: both partners purified.

B1: human NL3(+A1+A2)_(ECTO), immobilised for SPR (domain or fragment, UniProt Q9NZ94-1 38-636, looked up)
chain: QAPAPTVNTHFGKLRGARVPLPSEILGPVDQYLGVPYAAPPIGEKRFLPPEPPPSWSGIRNATHFPPVCPQNIHTAVPEVMLPVWFTANLDIVATYIQEPNEDCLYLNVYVPTEDVKRISKECARKPNKKICRKGGSGAKKQGEDLADNDGDEDEDIRDSGAKPVMVYIHGGSYMEGTGNMIDGSILASYGNVIVITLNYRVGVLGFLSTGDQAAKGNYGLLDQIQALRWVSENIAFFGGDPRRITVFGSGIGASCVSLLTLSHHSEGLFQRAIIQSGSALSSWAVNYQPVKYTSLLADKVGCNVLDTVDMVDCLRQKSAKELVEQDIQPARYHVAFGPVIDGDVIPDDPEILMEQGEFLNYDIMLGVNQGEGLKFVEGVVDPEDGVSGTDFDYSVSNFVDNLYGYPEGKDTLRETIKFMYTDWADRDNPETRRKTLVALFTDHQWVEPSVVTADLHARYGSPTYFYAFYHHCQSLMKPAWSDAAHGDEVPYVFGVPMVGPTDLFPCNFSKNDVMLSAVVMTYWTNFAKTGDPNKPVPQDTKFIHTKANRFEEVAWSKYNPRDQLYLHIGLKPRVRDHYRATKVAFWKHLVPHLYNLHD
modifications: biotin on the Avitag (in vivo biotinylation by BirA)
notes: source: HEK293T, co-transfected with ER-resident BirA; dialysed conditioned medium, captured on streptavidin chip
B1: the binding result in test [1] and in test [2] was “binds” throughout.

B2: human NL3(+A2)_(ECTO), immobilised for SPR (domain or fragment, UniProt Q9NZ94-1 38-636, looked up)
chain: QAPAPTVNTHFGKLRGARVPLPSEILGPVDQYLGVPYAAPPIGEKRFLPPEPPPSWSGIRNATHFPPVCPQNIHTAVPEVMLPVWFTANLDIVATYIQEPNEDCLYLNVYVPTEDGSGAKKQGEDLADNDGDEDEDIRDSGAKPVMVYIHGGSYMEGTGNMIDGSILASYGNVIVITLNYRVGVLGFLSTGDQAAKGNYGLLDQIQALRWVSENIAFFGGDPRRITVFGSGIGASCVSLLTLSHHSEGLFQRAIIQSGSALSSWAVNYQPVKYTSLLADKVGCNVLDTVDMVDCLRQKSAKELVEQDIQPARYHVAFGPVIDGDVIPDDPEILMEQGEFLNYDIMLGVNQGEGLKFVEGVVDPEDGVSGTDFDYSVSNFVDNLYGYPEGKDTLRETIKFMYTDWADRDNPETRRKTLVALFTDHQWVEPSVVTADLHARYGSPTYFYAFYHHCQSLMKPAWSDAAHGDEVPYVFGVPMVGPTDLFPCNFSKNDVMLSAVVMTYWTNFAKTGDPNKPVPQDTKFIHTKANRFEEVAWSKYNPRDQLYLHIGLKPRVRDHYRATKVAFWKHLVPHLYNLHD
modifications: biotin on the Avitag (in vivo biotinylation by BirA)
notes: as for B1
B2: the binding result in test [1] and in test [2] was “binds” in each case.
